T1: VEGFR-3-Fc (UniProt P35916 25-328)
T1 construct: domain: first three Ig domains; conditioned supernatant of 293T cells; also called VEGFR-3-Fc fusion protein; not shown: Fc fragment of the pIg vector
T1 sequence (looked up): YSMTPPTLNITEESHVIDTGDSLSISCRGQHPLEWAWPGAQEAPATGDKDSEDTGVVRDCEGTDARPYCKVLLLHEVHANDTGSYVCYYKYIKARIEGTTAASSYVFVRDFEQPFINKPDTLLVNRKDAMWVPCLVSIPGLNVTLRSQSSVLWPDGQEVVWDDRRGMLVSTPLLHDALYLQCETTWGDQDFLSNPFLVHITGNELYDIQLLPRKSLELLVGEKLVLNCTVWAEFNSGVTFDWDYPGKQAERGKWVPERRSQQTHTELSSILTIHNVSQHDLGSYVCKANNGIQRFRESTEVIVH


What was measured:
Assay in all cases: receptor-Fc IP
VEGFR-1-Fc = molecular target: T2, VEGFR-1-Fc (UniProt P17948 27-338)
T2 construct: domain: first three Ig domains; expressed in Drosophila S2 cells, purified on Protein A sepharose; also called VEGFR-1-Fc fusion protein; not shown: Fc fragment from the Signal-pIgPlus vector
T2 sequence (P17948 27-338): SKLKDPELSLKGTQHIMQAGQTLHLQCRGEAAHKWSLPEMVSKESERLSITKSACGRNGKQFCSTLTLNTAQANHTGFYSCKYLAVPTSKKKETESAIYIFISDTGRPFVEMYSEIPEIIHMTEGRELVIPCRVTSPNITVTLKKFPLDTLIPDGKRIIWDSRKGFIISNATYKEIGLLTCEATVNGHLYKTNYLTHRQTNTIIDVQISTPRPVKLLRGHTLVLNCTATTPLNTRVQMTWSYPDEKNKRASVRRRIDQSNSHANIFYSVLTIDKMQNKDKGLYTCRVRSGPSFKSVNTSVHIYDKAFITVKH
Procedure, shortened: (§1)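 fusion protein at 400 ng/ml in an IP mix (PBS, 1.5% BSA, 0.06% Tween 20, 3 μg/ml heparin) was combined with sample supernatant at a 1:2 ratio. Bound ligand captured by immunoprecipitation with pentahistidine antibody.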

VEGFR-3-Fc = molecular target: T1, VEGFR-3-Fc
Procedure, shortened: as §1

VEGFR-2-Fc = molecular target: T3, VEGFR-2-Fc (UniProt P35968 20-322)
T3 construct: domain: first 3 Ig domains; conditioned supernatant of 293T cells; also called VEGFR-2-Fc fusion protein; not shown: Fc fragment of the pIg vector
T3 sequence (P35968 20-322): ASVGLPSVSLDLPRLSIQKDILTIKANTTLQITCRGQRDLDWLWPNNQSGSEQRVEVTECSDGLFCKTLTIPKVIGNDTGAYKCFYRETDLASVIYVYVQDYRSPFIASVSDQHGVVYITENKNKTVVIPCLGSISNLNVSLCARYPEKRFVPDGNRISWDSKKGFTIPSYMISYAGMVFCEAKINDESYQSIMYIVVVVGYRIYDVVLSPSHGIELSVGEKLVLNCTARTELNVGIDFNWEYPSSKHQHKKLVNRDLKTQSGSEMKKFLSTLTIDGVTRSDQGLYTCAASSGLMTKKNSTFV
Procedure, shortened: as §1

Row | Binder | binding result (VEGFR-1-Fc) | binding result (VEGFR-3-Fc) | binding result (VEGFR-2-Fc)
1 | 74-16 (ligand) GQNHHEVVKSIDNEWRKTQCMPREVCIDVGKEFGVATNTFFKPSCVPLMRCGGCCNSEGLQCMNTSTSYLSKTLFEITVPLSQGPKPVTISFANHTSCRCMSKLD | no binding | no binding | no binding
2 | 74-2 (ligand) GQNHHEVVKSIDNEWRKTQCMPREVCIDVGKEFGVATNTFFKPSCVPLMRCGGCCNDEGLECMNTSTSYLSKTLFEIKPHQGQHIGEMSFLQHNKCECRPKKD | no binding | no binding | no binding
3 | 74-4 (ligand) GQNHHEVVKSIDNEWRKTQCMPREVCIDVGKEFGVATNTFFKPSCVPLMRCGGCCNSEGLQCMNTSTSYLSKTLFEIKPHQGQHIGEMSFLQHNKCECRPKKD | no binding | no binding | no binding
4 | 74-1 (ligand) GQNHHEVVKSIDNEWRKTQCMPREVCIDVGKEFGVATNTFFKPSCVPLMRCGGCCNDEGLECVPTEESNITMQIMRIKPHQGQHIGEMSFLQHNKCECRPKKD | no binding | no binding | no binding
5 | 74-3 (ligand) GQNHHEVVKSIDNEWRKTQCMPREVCIDVGKEFGVATNTFFKPSCVPLMRCGGCCNSEGLQCVPTEESNITMQIMRIKPHQGQHIGEMSFLQHNKCECRPKKD | no binding | no binding | no binding
6 | 71-8 (ligand) GQNHHEVVKSIDNEWRKTQCMPREVCIDVGKEYPDEIEYIFKPSCVPLMRCGGCCNSEGLQCMNTSTSYLSKTLFEIKPHQGQHIGEMSFANHTSCRCMSKLD | no binding | no binding | no binding
7 | 74-6 (ligand) GQNHHEVVKSIDNEWRKTQCMPREVCIDVGKEFGVATNTFFKPSCVPLMRCGGCCNDEGLECMNTSTSYLSKTLFEIKPHQGQHIGEMSFANHTSCRCMSKLD | no binding | no binding | no binding
8 | 71-5 (ligand) GQNHHEVVKSIDNEWRKTQCMPREVCIDVGKEYPDEIEYIFKPSCVPLMRCGGCCNDEGLECVPTEESNITMQIMRIKPHQGQHIGEMSFANHTSCRCMSKLD | no binding | no binding | no binding
9 | 71-7 (ligand) GQNHHEVVKSIDNEWRKTQCMPREVCIDVGKEYPDEIEYIFKPSCVPLMRCGGCCNSEGLQCVPTEESNITMQIMRIKPHQGQHIGEMSFANHTSCRCMSKLD | no binding | no binding | no binding
10 | 73-5 (ligand) GQNHHEVVKSIDNEWRKTQCMPREVCIDVGKEYPDEIEYIFKPPCVSVYRCGGCCNDEGLECVPTEESNITMQIMRIKPHQGQHIGEMSFANHTSCRCMSKLD | no binding | no binding | no binding
11 | 82-1 (ligand) AHYNTEILKFMDVYQRSYCHPIETLVDIFQEFGVATNTFFKPPCVSVYRCGGCCNDEGLECVPTEESNITMQIMRIKPHQGQHIGEMSFLQHNKCECRPKKD | no binding | no binding | no binding
12 | 74-15 (ligand) GQNHHEVVKSIDNEWRKTQCMPREVCIDVGKEFGVATNTFFKPSCVPLMRCGGCCNSEGLQCVPTEESNITMQIMRITVPLSQGPKPVTISFANHTSCRCMSKLD | no binding | no binding | no binding
13 | 71-10 (ligand) GQNHHEVVKSIDNEWRKTQCMPREVCIDVGKEYPDEIEYIFKPSCVPLMRCGGCCNDEGLECMNTSTSYLSKTLFEITVPLSQGPKPVTISFLQHNKCECRPKKD | no binding | no binding | no binding

Further lines, results first:

Row | binding result (VEGFR-1-Fc) | binding result (VEGFR-3-Fc) | binding result (VEGFR-2-Fc) | Binder
14 | no binding | no binding | no binding | 71-16 (ligand) GQNHHEVVKSIDNEWRKTQCMPREVCIDVGKEYPDEIEYIFKPSCVPLMRCGGCCNSEGLQCMNTSTSYLSKTLFEITVPLSQGPKPVTISFANHTSCRCMSKLD
15 | no binding | no binding | no binding | 71-12 (ligand) GQNHHEVVKSIDNEWRKTQCMPREVCIDVGKEYPDEIEYIFKPSCVPLMRCGGCCNSEGLQCMNTSTSYLSKTLFEITVPLSQGPKPVTISFLQHNKCECRPKKD
16 | no binding | no binding | no binding | 73-12 (ligand) GQNHHEVVKSIDNEWRKTQCMPREVCIDVGKEYPDEIEYIFKPPCVSVYRCGGCCNSEGLQCMNTSTSYLSKTLFEITVPLSQGPKPVTISFLQHNKCECRPKKD
17 | no binding | no binding | no binding | 73-10 (ligand) GQNHHEVVKSIDNEWRKTQCMPREVCIDVGKEYPDEIEYIFKPPCVSVYRCGGCCNDEGLECMNTSTSYLSKTLFEITVPLSQGPKPVTISFLQHNKCECRPKKD
18 | no binding | no binding | no binding | 73-1 (ligand) GQNHHEVVKSIDNEWRKTQCMPREVCIDVGKEYPDEIEYIFKPPCVSVYRCGGCCNDEGLECVPTEESNITMQIMRIKPHQGQHIGEMSFLQHNKCECRPKKD
19 | no binding | no binding | no binding | 73-3 (ligand) GQNHHEVVKSIDNEWRKTQCMPREVCIDVGKEYPDEIEYIFKPPCVSVYRCGGCCNSEGLQCVPTEESNITMQIMRIKPHQGQHIGEMSFLQHNKCECRPKKD
20 | no binding | no binding | no binding | 73-2 (ligand) GQNHHEVVKSIDNEWRKTQCMPREVCIDVGKEYPDEIEYIFKPPCVSVYRCGGCCNDEGLECMNTSTSYLSKTLFEIKPHQGQHIGEMSFLQHNKCECRPKKD

Source: patent publication US20080058263A1 (published 2008)
